The experiment concerns the target hKv1.4 (Homo sapiens, UniProt P22459). Put plainly: Two-electrode voltage clamp of Kv1.4 currents in Xenopus oocytes coexpressing 1v. The class given is cell-based. How it is done:
Frogs underwent no more than two surgeries and surgeries were performed by well established techniques. Frogs were anesthetized with ice. Total cRNA (1-10 ng) was injected into stage IV Xenopus oocytes that were harvested the previous day. The Xenopus oocytes were incubated in ND96 containing (in mM) 96 NaCl, 2 KCl, 1.8 CaCl2, 1 MgCl2, 5 HEPES, pH 7.6, plus (Gentamycin 50 μg/ml) at 18° C. Xenopus oocytes were studied 3-7 days after injection. The two-electrode voltage-clamp recordings were performed in ND96 solution using a TURBO TEC 03 Clamp Amplifier (ALA Scientific Instruments, Westbury, N.Y.). Both electrodes were filled with 3 M KCl and had electrode resistances ranging from 0.2-1 MOhm. The current signals were filtered at 1000 Hz before transferred on a PC (Gateway, Calif.) using the PULSE software (HEKA, Germany).
To investigate whether the modulatory effects of these KChIPs are specific for Kv4 channels, KChIP1 was coexpressed with Kv1.4 and Kv2.1 in Xenopus oocytes. Xenopus oocytes were injected with 1-3 ng/oocyte of cRNA which was prepared using standard in vitro transcription techniques (Sambrook et al. 1989. Molecular Cloning: a laboratory manual, Cold Spring Harbor Press). Currents in Xenopus oocytes were measured with a two-electrode voltage clamp. […] As a final control for the KChIP effects and to verify that the KChIPs' effects on Kv4 currents are independent of expression system, the above kinetic analyses were repeated after expressing Kv4.3 and KChIP mRNAs in Xenopus oocytes. The effects KChIP1 on for Kv4.3 in the Xenopus oocyte system were strikingly similar to those on Kv4.2 in CHO cells (Table 1).
(Two-electrode voltage clamp is typically applied to oocytes expressing channels or transporters.)

Sequence of hKv1.4 (P22459 whole entry): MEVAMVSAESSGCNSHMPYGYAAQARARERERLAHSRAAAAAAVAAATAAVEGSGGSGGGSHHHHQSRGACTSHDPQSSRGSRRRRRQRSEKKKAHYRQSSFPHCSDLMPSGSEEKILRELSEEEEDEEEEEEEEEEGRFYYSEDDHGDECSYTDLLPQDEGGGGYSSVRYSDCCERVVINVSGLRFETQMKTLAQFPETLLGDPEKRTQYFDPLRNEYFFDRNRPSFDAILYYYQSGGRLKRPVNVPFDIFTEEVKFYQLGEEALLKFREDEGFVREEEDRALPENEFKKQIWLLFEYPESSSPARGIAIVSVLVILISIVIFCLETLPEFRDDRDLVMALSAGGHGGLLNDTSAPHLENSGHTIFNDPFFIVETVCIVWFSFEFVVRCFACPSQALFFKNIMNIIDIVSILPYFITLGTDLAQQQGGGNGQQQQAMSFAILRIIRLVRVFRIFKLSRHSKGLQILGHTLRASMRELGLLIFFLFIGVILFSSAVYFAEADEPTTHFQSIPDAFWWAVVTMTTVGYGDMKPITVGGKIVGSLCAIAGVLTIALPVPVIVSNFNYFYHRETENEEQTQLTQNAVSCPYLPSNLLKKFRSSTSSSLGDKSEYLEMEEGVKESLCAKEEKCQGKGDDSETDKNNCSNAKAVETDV

B1: KChIP1: Potassium channel interacting protein 1v, a Ca2+-binding protein that binds and modulates Kv4 channels (protein)
chain: MPARVLLAYPGTEMLTQGESEGLQTLGIVVVLCSSLKLLHYLGLIDLSDDKIEDDLEMTMVCHRPEGLEQLEAQTNFTKRELQVLYRGFKNECPSGVVNEETFKQIYAQFFPHGDASTYAHYLFNAFDTTQTGSVKFEDFVTALSILLRGTVHEKLRWTFNLYDINKDGYINKEEMMDIVKAIYDMMGKYTYPVLKEDTPRQHVDVFFQKMDKNKDGIVTLDEFLESCQEDDNIMRSLQLFQNVM
As for B1, the “effect on Kv1.4 currents” value was “did not appear to have any effect”. For the setting “hKv1.4 + 1v”, the “Activation V1/2 (mV)” value is −20.9 mV and the “Steady-state Inactivation V1/2 (mV)” value is −47.5 mV. Further, for the setting “hKv1.4 + 1v, at 50 mV”, the “Inactivation time constant (ms, at 50 mV)” value is 58.2 ± 6.6 ms and the “Peak Current (μA/cell at 50 MV)” value is listed as 6.5 ± 0.64 μA/cell.

(Values after US7556938B1, “Nucleic acids encoding potassium channel interactors” (Millennium Pharmaceuticals, Inc., priority 1998, dated 2009).)
